Laboratory results published in IntAct's records for PubMed 18583988.

Molecular target: csk21_human CSNK2A1 (UniProt P68400)
Sequence of UniProt P68400 (P68400 whole entry, looked up): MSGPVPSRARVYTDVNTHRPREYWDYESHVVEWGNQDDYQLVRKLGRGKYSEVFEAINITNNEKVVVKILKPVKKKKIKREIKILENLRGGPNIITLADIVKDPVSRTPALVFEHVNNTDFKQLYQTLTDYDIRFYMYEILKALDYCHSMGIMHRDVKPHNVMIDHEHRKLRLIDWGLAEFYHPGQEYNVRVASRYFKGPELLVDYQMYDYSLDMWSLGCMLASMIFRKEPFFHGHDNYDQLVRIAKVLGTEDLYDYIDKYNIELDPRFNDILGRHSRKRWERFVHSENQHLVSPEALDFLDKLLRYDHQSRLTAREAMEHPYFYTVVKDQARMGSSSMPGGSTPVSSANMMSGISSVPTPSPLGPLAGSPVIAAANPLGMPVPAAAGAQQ

| effect of a mutation on the interaction | Substance |
| --- | --- |
| disrupting interaction | Mediator of DNA damage checkpoint protein 1 (Homo sapiens), Q14676 T331A |
| disrupting interaction | Mediator of DNA damage checkpoint protein 1 (Homo sapiens), Q14676 T301A |
